{
  "source": "patent US20260000736A1",
  "about": "“PURIFIED LACTOFERRIN COMPOSITIONS AND METHODS OF USE” (Lactea Therapeutics LLC, priority 2023, published 2026)",
  "molecules": {"B1": {"name": "Lactea-Lf: bovine lactoferrin purified from raw untreated milk by cation exchange chromatography and filtration according to Example 1 (protein)", "chain": "APRKNVRWCTISQPEWFKCRRWQWRMKKLGAPSITCVRRAFALECIRAIAEKKADAVTLDGGMVFEAGRDPYKLRPVAAEIYGTKESPQTHYYAVAVVKKGSNFQLDQLQGRKSCHTGLGRSAGWVIPMGILRPYLSWTESLEPLQGAVAKFFSASCVPCIDRQAYPNLCQLCKGEGENQCACSSREPYFGYSGAFKCLQDGAGDVAFVKETTVFENLPEKADRDQYELLCLNNSRAPVDAFKECHLAQVPSHAVVARSVDGKEDLIWKLLSKAQEKFGKNKSRSFQLFGSPPGQRDLLFKDSALGFLRIPSKVDSALYLGSRYLTTLKNLRETAEEVKARYTRVVWCAVGPEEQKKCQQWSQQSGQNVTCATASTTDDCIVLVLKGEADALNLDGGYIYTAGKCGLVPVLAENRKTSKYSSLDCVLRPTEGYLAVAVVKKANEGLTWNSLKDKKSCHTAVDRTAGWNIPMGLIVNQTGSCAFDEFFSQSCAPGRDPKSRLCALCAGDDQGLDKCVPNSKEKYYGYTGAFRCLAEDVGDVAFVKNDTVWENTNGESTADWAKNLNREDFRLLCLDGTRKPVTEAQSCHLAVAPNHAVVSRSDRAAHVKQVLLHQQALFGKNGKNCPDKFCLFKSETKNLLFNDNTECLAKLGGRPTYEEYLGTEYVTAIANLKKCSTSPLLEACAFLTR"}},
  "key": {"[1]": {"assay": "DSC iron binding capability with excess FeCl3", "conditions": "FeCl3 added in 1000× molar excess", "method": "The DSC assay was further used to assess Lactoferrin bioactivity, specifically the iron binding capability of the API-E2 Lactoferrin. Iron chloride (FeCl3) was added in 1000× molar excess to API-E2 Lactoferrin. In the presence of excess iron, the API-E2 lactoferrin will bind the iron to its open iron binding site."}, "E. coli 0157": {"test_system": "E. coli 0157", "assay": "Bacterial growth inhibition, OD600 after 16 h", "type": "cell-based", "conditions": "1 mg/mL Lf, 16 h at 37° C.; for Relative Bacterial Growth, Replicate 1 / Relative Bacterial Growth, Replicate 2 / Relative Bacterial Growth, Replicate 3: 10∝CFU/mL E. coli 0157 in LB, OD600 relative to untreated", "method": "As an analytical standard for the assessment of Lactoferrin (Lf) activity, 1 mg/mL Lf was added to 10∝CFU/mL E. coli 0157 in LB and incubated for 16 h at 37° C. Lactea Lactoferrin (Lactea-Lf) was produced as described in the above examples. Assessed were three independent lots of Lactea-Lf, impure samples which were generated by co-eluting Lactoperoxidase and Lactoferrin (co-elution), samples with degradation products generated by eluting Lactoferrin from old milk which was left for three days (Degradation Products), and a Sigma Aldrich Lactoferrin L9507 (Research Standard). As shown in FIG. 16 and quantified in Table 5, in the Lactea-Lf lots assessed, less than 5% the total growth of bacteria was observed as assessed by OD600 relative to the growth of untreated bacteria under these conditions. In this case, co-elution samples were samples which have a detectable peak of LPO as observable in MALDI-TOF M/S or HPLC. Degradation Products had identifiable degradation peaks as observed in HPLC or DSC."}},
  "data": [
    {"molecule": "B1", "values": [
      {"measurement": "available Apolactoferrin shifted to the Hololactoferrin form", "setting": "[1]", "value": 100, "unit": "%"},
      {"measurement": "Relative Bacterial Growth, Replicate 1", "setting": "E. coli 0157; listed as Lactea-Lf Lot 1", "value": "3.15E−09"},
      {"measurement": "Relative Bacterial Growth, Replicate 2", "setting": "E. coli 0157; listed as Lactea-Lf Lot 1", "value": 0.002228},
      {"measurement": "Relative Bacterial Growth, Replicate 3", "setting": "E. coli 0157; listed as Lactea-Lf Lot 1", "value": 0.04512},
      {"measurement": "Relative Bacterial Growth, Replicate 1", "setting": "E. coli 0157; listed as Lactea-Lf Lot 2", "value": 0.01532},
      {"measurement": "Relative Bacterial Growth, Replicate 2", "setting": "E. coli 0157; listed as Lactea-Lf Lot 2", "value": 0.005292},
      {"measurement": "Relative Bacterial Growth, Replicate 3", "setting": "E. coli 0157; listed as Lactea-Lf Lot 2", "value": 0.01281},
      {"measurement": "Relative Bacterial Growth, Replicate 1", "setting": "E. coli 0157; listed as Lactea-Lf Lot 3", "value": 0.003621},
      {"measurement": "Relative Bacterial Growth, Replicate 2", "setting": "E. coli 0157; listed as Lactea-Lf Lot 3", "value": 0.01059},
      {"measurement": "Relative Bacterial Growth, Replicate 3", "setting": "E. coli 0157; listed as Lactea-Lf Lot 3", "value": 0.008635},
      {"measurement": "total growth of bacteria by OD600 relative to the growth of untreated bacteria", "setting": "E. coli 0157", "value": "less than 5%"}
    ]}
  ]
}
